# Key:
# [1] = system: advanced solid tumors; conditions: cited from earlier work
# [2] = Pharmacokinetics of teliso‐v conjugate and MMAE, noncompartmental; type: in vivo, human; conditions: for AUCinf, conjugate / Cmax, conjugate: geometric mean (%CV); for t1/2, conjugate: harmonic mean (min-max); for Tmax, conjugate: median (min-max)
# Method: PK samples were also collected on cycles 2 and 4 predose and approximately 30 minutes after the end of infusion on day 1. PK parameters such as peak concentration (Cmax), time to peak concentration, area under the concentration‐time curve (AUC), and terminal half‐life (t1/2) were determined using noncompartmental methods.
# [3] = first administration, cycle 1, across 2.4 and 2.7 mg/kg
substance,measurement,setting,value
"Teliso‐v: antibody‐drug conjugate: anti–c‐Met humanized monoclonal antibody ABT‐700 coupled to monomethyl auristatin E through a valine‐citrulline linker, drug:antibody ratio approximately three",Tolerability,[1]; 2.7 mg/kg Q3 W,well tolerated
same,Patients with PR,[1]; c‐Met‐positive NSCLC,three of 14
same,Recommended phase 2 dose (RP2D),"[1]; every 3 weeks, preceding phase 1 study outside of Japan",2.7 mg/kg
same,Frequency of corneal epithelium disorder,"[1]; non‐Japanese patients, nine of 116, teliso‐v monotherapy, ref data on file",7.8%
same,Dose proportionality of systemic exposure,"[2]; 2.4 and 2.7 mg/kg, cycle 1",approximately dose proportional
same,t1/2,"[2]; N = 9, both dose levels",72 to 96 h
same,"AUCinf, conjugate","[2]; cycle 1, 2.4 mg/kg IV, n = 3",4437 (19) µg*h/mL
same,"Cmax, conjugate","[2]; cycle 1, 2.4 mg/kg IV, n = 3",55.5 (26) µg/mL
same,"t1/2, conjugate","[2]; cycle 1, 2.4 mg/kg IV, n = 3",4.18 (3.8–4.7) days
same,"Tmax, conjugate","[2]; cycle 1, 2.4 mg/kg IV, n = 3",1 (1–1) h
same,"AUCinf, conjugate","[2]; cycle 1, 2.7 mg/kg IV, n = 6",5202 (23) µg*h/mL
same,"Cmax, conjugate","[2]; cycle 1, 2.7 mg/kg IV, n = 6",63.0 (22) µg/mL
same,"t1/2, conjugate","[2]; cycle 1, 2.7 mg/kg IV, n = 6",2.91 (2.5–3.9) days
same,"Tmax, conjugate","[2]; cycle 1, 2.7 mg/kg IV, n = 6",1 (1–1) h
same,"AUC from zero to infinity, preliminary geometric mean",[2]; [3],"4,400–5,200 µg*h/ml"
same,"Serum Cmax, preliminary geometric mean",[2]; [3],55.5 to 63.0 µg/mL
same,Accumulation in cycle 3,[2]; multiple dosing Q3 W,1.1–1.2 fold

# From PMC7982615, “Phase 1 study of telisotuzumab vedotin in Japanese patients with advanced solid tumors” (Cancer Medicine, 2021)
